The values below come from the nanobody polyreactivity screen of Harvey et al. (2022).

The nature of this data set: yeast display, Sf9 membrane polyspecificity reagent, FACS + sequencing; frameworks hold sequencing errors. Summed up: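 A synthetic nanobody library was expressed on Saccharomyces cerevisiae BJ5465 by galactose induction for 36–48 hours. The library was stained for 1 hour at 4 °C with 10% biotinylated, detergent-solubilized Sf9 membrane reagent and enriched with streptavidin microbeads before FACS. Low and high (top ~1%) gates were set on anti-HA fluorescence for expression and streptavidin fluorescence for reagent binding, and each polyreactivity label reflects the gate of origin.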
For the sequence “QVHIVESGGGLVQAGGRLRLSCADSGTTFSYYTMGWYRQSPGKERELVAAISTSGGSTYYADSVKGRFTISRDNAKNTVYLQMNSLKPEDTAVYYCDARYGRYYKYNYWGQGTQVTVSS”, the “polyreactivity (PSR sort gate)” value was “high polyreactivity”.
For “QVHIVESGGGLVQAGGSLRLSCAASGLIFYLYTRGWSRQATGKERELVAAISRSGTITYYADSVKGRFTISRDNAKNTVYLQMNSLKPEDTAVYYCAATYTYIIGTRYDYWGQGTQVTVSS” the value was “high polyreactivity”.
For “QVHLEESGAGLVQAGGSLRISCAASGFIFDYYAMGWYRQAPGKERELVATITSRGGSTYYADSVKGRFTISRDNAKNTVSLQMNRLKPDYNGVYYCAAVSHPGRKYYYWGQGTQVTVSS” the value was “high polyreactivity”; for “QVHLEESGGGLVQAGGSLRLSCAASGFTFGPYAMGWYRQAPGKERELDATIRSGDSTNYADSVKGRFTISRDNAKNTVYLQMNSLKPEDTAVYYCARDARASARRKRYDYWGQGTQVTVSS”, “low polyreactivity”.
For “QVHLEESGGGLVQAGRSLRLTCAASGRTFLWYAMGSYRQAPGKETDLVAAIRRSGGGTYYADSVKGRFTISRDNAKNSVYLQMNRLKPEDSGFFYCNSDYRGYQRGVISDGFYYWGLGTQVTVSS” the value was “low polyreactivity”.
Turning to “QVHLGQSGGGLVQAGGSLRLSCAASAITFRGNAMGWYRQAPGKERDLVAVITKGGVSTYYADSVKGRFTISRDNAKNTVYLQMNSLKPEVTAVYYCAKYWSWRSVKDYYWGLGTQVTVSS”, the “polyreactivity (PSR sort gate)” value is listed as “high polyreactivity”.
Turning to “QVHLLESGGGLVQAGGSLRLSCAASGRTFIRNAMGWYRQAPGKERELVASIRWSGGSTYYADSVKGRFTISRDNAKNTVYLQMNSLKPEDTAVYYCARRKQSFGSWPPSEPVADDYWGQGTQVTVSS”, the “polyreactivity (PSR sort gate)” value is reported as “low polyreactivity”.
For “QVHLQESGAGLVQVGGSQRLSCAASGNIFYNYAMGWSRHAQGKEREFDATINHGTSINYADSVKGRFTISRDNAKNNVYLQMNCLKPEDTAVYYCAADLSWTDNLFYWGQGTQVSVSS” the value was “low polyreactivity”; for “QVHLQESGGGLEQAGGSLSPSCAASGSISNGVPMGWYRQAPGEERELVATTVLGATTNYADSVKGRFTISRGNAKNPVYLQMNSLKPEETAVYYCAAPLRYDKGFSYWGQGTQVTVSS”, “low polyreactivity”.
For “QVHLQESGGLVQAGGLRLSCAASGSVSYQEAMGWYPQAPGKERELVATISFGANTNYADSVKGRFTISRDNAKNTVYLQRNCLKPEDTAVYYCAAESLFDDYYGYWGQGTQVTVSS” the value was “low polyreactivity”; for “QVHLVDSGGGIVQAGGSLRLSCAATGRISGVYAMVWYRQAPGKERELVAAISWSGGRTYYADSVKGRFTISRDNAKNTVYLQMNSLKPEDTAVYYCNADTGFRSYRRDYWGQGTQVTVSS”, “low polyreactivity”.
For “QVHLVDSGGGLVQAGGILRLSCSDYGSTFALYAMGWYRQSPGKVSELVAPITTSGGNTYYADSVKGRFTISRDNAKNTVYLQMNSLKPEDTAVYYCAADPWWSYTSYLRYYNLEMNYWGQGTQVTVSS” the value was “high polyreactivity”; for “QVHLVDSGGGLVQAGGSLRLSCAASGFIFWSYAMGWYRQAPGKERELVAAISFRGGSTFYADSVKGRFTISRDNAKNTVYLQMNSLKPEDTAVYYCAVGVYPSYRGPTFSTRRDYWGQGTQVTVSS”, “low polyreactivity”; for “QVHLVDSGGGLVQAGGSLRLSCAASGFTFDYYAMGWYRQAPGKERELVAAITSDGSTYYADSVKGRFTISRDNAKNTVYLQMNSLKPEDTAVYYCAADGISLYATAYDYWGQGTQVTVSS”, “low polyreactivity”.
With “QVHLVDSGGGLVQAGGSLRLSCAASGSISYDNAMGWYRQAPGKERELVAAITFSGDSTNYADSVKGRFTISRDNAKNTVYLQMNSLKPEDTAVYYCAASQVSDTTRFGYWGQGTQVTVSS”, the “polyreactivity (PSR sort gate)” value is on record as “low polyreactivity”.
For “QVHLVDSGGGLVQAGGSLRLSCAASGSTFYYYVMGWYRQAPGKERELVAAISSGGHPNYADSVKGRFTISRDNAKNTVYLEMNSLKPEDTAVYYCAAKARRGTLLRYGYWGQGTQVTVSS” the value was “high polyreactivity”; for “QVHLVDSGGGLVQAGGSLRLSCAASGYTFIAYTMGWYRQAPGKERELVAAITTGGRTYYADSVKGRFTISRDNAKNTVYLQMNSLKPEDTAVYYCAAYYSARYKYGGVDYWGQGTQVTVSS”, “high polyreactivity”; for “QVHLVDSGGGLVQARGSLRLSCAASGFTIGPYAMGWYRQAPGKERELVAAITIRGGSTYADSVKGRFTISRDNAKNTVYLQMNSLKPEDTAVYYCATVRALEYNYWGQGTQVTVSS”, “low polyreactivity”.
For “QVHLVEAGGGLVQAGGSRRLSCAASGGIFTDYTMGWYRQAPGKETELVAAITWTGGSTYYADSVKGRFTISRDNAKNTVYLQMNSLKPEDTAVYDCAADDYWVNLDYWGQGTQVTVSS” the value was “low polyreactivity”.
For “QVHLVESAGGLVQAGGSLSLSCAASAITLYFNAMGWYRQAPGKEREWVAAISWSGDSTYYADSVKGRFTISRDNAKNTVYLQMNSLKPEDTAVYYCAADRYTYYHYAWYEYWGQGTQVTVSS” the value was “low polyreactivity”; for “QVHLVESGAGLDQAGVRLRLSCAPSGTTFDYNTMGWYRQAPGKERELVASINNSGGSTYYADSVKGRFTISRDNAKNTVYLQMISLKPVDTAVYYCAAVSYRRHFGPYNYWGQGTQVTVSS”, “low polyreactivity”; for “QVHLVESGAGLVQAGGSLRLSCPASGSIFFLYPMGWYRQAPGKESELVAAITWRVGSTYYADSVKGRFTISRDNAKNTVYLQMNSLKPEDTAVYYCAAYFLGFQVRYDYWGQGTQVTVSS”, “high polyreactivity”.
In the case of “QVHLVESGGALVQAGGSLPLSFSASGSIFTYYAMGWYRQQPGKERELVAAINSGGRTNYADSVKGRFTISRDNAKNTVYLQMNSLKPEDTAVYYCAKYGVLQYGYWGQGTQVTVSS”, the “polyreactivity (PSR sort gate)” value was “low polyreactivity”.
For the sequence “QVHLVESGGALVQAGGSLRLSCAASGFIFNHYAMGWYRQAPGKEQEFVAAISWSGGSTYYADSVKGRFTISRDNAKITVYLQMNSLKPEDTAVYYCAAAVWYRGWYRYDYWGQGTQVTVSS”, the “polyreactivity (PSR sort gate)” value is on record as “low polyreactivity”.
For “QVHLVESGGCLVQAGGSLRLSCAASGYIIGINAMACYRQAPRKESELVPAISRSGGSTYYAESVKGRFTISRDNAKNTVYLQMNSLKPEDTAVYYCASDILRFYSDTYGTEYWGQGTQVTVSS” the value was “high polyreactivity”; for “QVHLVESGGCLVQAGGSLRLSCSASRSIFPNNDMGWYRQQPGKERELVPAITTRGTSTYYAESVKGRFTISRDYAKNTVYLQMKSLKPEDTAVYFCAVGRRGYSAGGVAYYYWGQGTQVTVSS”, “low polyreactivity”; for “QVHLVESGGGFVQAGGSLRLICAASGITFGIYVMGWSRQAPGKERELVATISRSDDNSYYADSVKGRFTISRDNAKNTVYLQMNSLKPEDTAVYYCAADGVISAWYSSRDDYWGQGTQVTVSS”, “low polyreactivity”.
For “QVHLVESGGGFVQAGGSLRVSCAASRRIYNLNAMGWYRQAPGKERELVAAISKSGTRTYYADSVKGRFTISRDNAKNTVYLPMNSLKPEDTAVYSCAARRSSVTQSTTYPAVRQRYGYWGQGTQVTVSS” the value was “high polyreactivity”; for “QVHLVESGGGIDQAGGSLRLSCAASGSIFRNYAMAWKRQAPGKERELVAFITRGGSTYYADSVKVRFTISRDNAKNTVYFQMNSLKPEHTAVYYCAADFWPAGLDLGYWGQGTQVTLSS”, “low polyreactivity”; for “QVHLVESGGGIVQAGGSLRLSCAASGRTFGVNAMGWYRQAPGQEMELVAAISYSGASTFYADSLKGRFTISRDKAKNNVYLQMNSLKPEDTAVYYCAKRVVRYGKRMGYWGQGTQVTVSS”, “high polyreactivity”.
